Experiment [1] concerns the target CHIKV virus-like particles (strain 37997) (chikungunya virus).
The target is the same in experiment [2]. This is another data set of the same source.
Experiment [3] addresses CHIKV E2-6K-E1 envelope proteins (strain S27) with E2 C201A (Chikungunya virus strain S27) (UniProt Q8JUX5). As to the kind of experiment: flow cytometry, transfected 293T cells.
Experiment [4] has as its target CHIKV E2-6K-E1 envelope proteins (strain S27) with E2 C203A (Chikungunya virus strain S27) (UniProt Q8JUX5). As to the kind of experiment: flow cytometry, transfected 293T cells.
The target of experiment [5] is CHIKV E2-6K-E1 envelope proteins (strain S27) with E2 C220A (Chikungunya virus strain S27) (UniProt Q8JUX5). As to the kind of experiment: flow cytometry, transfected 293T cells. On the technique in general: Flow cytometry measures light scatter and fluorescence of single cells or particles in a stream.
The target of experiment [6] is CHIKV E2-6K-E1 envelope proteins (strain S27) with E2 G186A (Chikungunya virus strain S27) (UniProt Q8JUX5). In words: flow cytometry, transfected 293T cells.
Experiment [7] concerns the target CHIKV E2-6K-E1 envelope proteins (strain S27) with E2 G204A (Chikungunya virus strain S27) (UniProt Q8JUX5). In words: flow cytometry, transfected 293T cells.
Experiment [8] addresses CHIKV E2-6K-E1 envelope proteins (strain S27) with E2 G205A (Chikungunya virus strain S27) (UniProt Q8JUX5). In words: flow cytometry, transfected 293T cells.
Experiment [9] addresses CHIKV E2-6K-E1 envelope proteins (strain S27) with E2 G209A (Chikungunya virus strain S27) (UniProt Q8JUX5). As to the kind of experiment: flow cytometry, transfected 293T cells.
Experiment [10] deals with CHIKV E2-6K-E1 envelope proteins (strain S27) with E2 I190A (Chikungunya virus strain S27) (UniProt Q8JUX5). In words: flow cytometry, transfected 293T cells.
Experiment [11] deals with CHIKV E2-6K-E1 envelope proteins (strain S27) with E2 I211A (Chikungunya virus strain S27) (UniProt Q8JUX5). As to the kind of experiment: flow cytometry, transfected 293T cells.
Experiment [12] has as its target CHIKV E2-6K-E1 envelope proteins (strain S27) with E2 I217A (Chikungunya virus strain S27) (UniProt Q8JUX5). As to the kind of experiment: flow cytometry, transfected 293T cells.
Experiment [13] has as its target CHIKV E2-6K-E1 envelope proteins (strain S27) with E2 K189A (Chikungunya virus strain S27) (UniProt Q8JUX5). As to the kind of experiment: flow cytometry, transfected 293T cells.
Experiment [14] deals with CHIKV E2-6K-E1 envelope proteins (strain S27) with E2 K200A (Chikungunya virus strain S27) (UniProt Q8JUX5). As to the kind of experiment: flow cytometry, transfected 293T cells.
In experiment [15] the target is CHIKV E2-6K-E1 envelope proteins (strain S27) with E2 K215A (Chikungunya virus strain S27) (UniProt Q8JUX5). In words: flow cytometry, transfected 293T cells.
In experiment [16] the target is CHIKV E2-6K-E1 envelope proteins (strain S27) with E2 L180A (Chikungunya virus strain S27) (UniProt Q8JUX5). In words: flow cytometry, transfected 293T cells.
The target in experiment [17] is CHIKV E2-6K-E1 envelope proteins (strain S27) with E2 L181A (Chikungunya virus strain S27) (UniProt Q8JUX5). As to the kind of experiment: flow cytometry, transfected 293T cells.
The target in experiment [18] is CHIKV E2-6K-E1 envelope proteins (strain S27) with E2 L210A (Chikungunya virus strain S27) (UniProt Q8JUX5). As to the kind of experiment: flow cytometry, transfected 293T cells.
Experiment [19] deals with CHIKV E2-6K-E1 envelope proteins (strain S27) with E2 N187A (Chikungunya virus strain S27) (UniProt Q8JUX5). In words: flow cytometry, transfected 293T cells.
Experiment [20] has as its target CHIKV E2-6K-E1 envelope proteins (strain S27) with E2 N193A (Chikungunya virus strain S27) (UniProt Q8JUX5). In words: flow cytometry, transfected 293T cells.
The target of experiment [21] is CHIKV E2-6K-E1 envelope proteins (strain S27) with E2 N202A (Chikungunya virus strain S27) (UniProt Q8JUX5). In words: flow cytometry, transfected 293T cells.
Experiment [22] concerns the target CHIKV E2-6K-E1 envelope proteins (strain S27) with E2 N218A (Chikungunya virus strain S27) (UniProt Q8JUX5). In words: flow cytometry, transfected 293T cells.
Experiment [23] deals with CHIKV E2-6K-E1 envelope proteins (strain S27) with E2 N219A (Chikungunya virus strain S27) (UniProt Q8JUX5). As to the kind of experiment: flow cytometry, transfected 293T cells.
In experiment [24] the target is CHIKV E2-6K-E1 envelope proteins (strain S27) with E2 Q183A (Chikungunya virus strain S27) (UniProt Q8JUX5). As to the kind of experiment: flow cytometry, transfected 293T cells.
Experiment [25] has as its target CHIKV E2-6K-E1 envelope proteins (strain S27) with E2 Q184A (Chikungunya virus strain S27) (UniProt Q8JUX5). In words: flow cytometry, transfected 293T cells.
Experiment [26] addresses CHIKV E2-6K-E1 envelope proteins (strain S27) with E2 Q195A (Chikungunya virus strain S27) (UniProt Q8JUX5). As to the kind of experiment: flow cytometry, transfected 293T cells.
The target of experiment [27] is CHIKV E2-6K-E1 envelope proteins (strain S27) with E2 R198A (Chikungunya virus strain S27) (UniProt Q8JUX5). In words: flow cytometry, transfected 293T cells.
For experiment [28], the target named is CHIKV E2-6K-E1 envelope proteins (strain S27) with E2 S182A (Chikungunya virus strain S27) (UniProt Q8JUX5). As to the kind of experiment: flow cytometry, transfected 293T cells.
Experiment [29] has as its target CHIKV E2-6K-E1 envelope proteins (strain S27) with E2 S185A (Chikungunya virus strain S27) (UniProt Q8JUX5). In words: flow cytometry, transfected 293T cells.
The target of experiment [30] is CHIKV E2-6K-E1 envelope proteins (strain S27) with E2 S194A (Chikungunya virus strain S27) (UniProt Q8JUX5). In words: flow cytometry, transfected 293T cells.
Experiment [31] has as its target CHIKV E2-6K-E1 envelope proteins (strain S27) with E2 S206A (Chikungunya virus strain S27) (UniProt Q8JUX5). As to the kind of experiment: flow cytometry, transfected 293T cells.
The target in experiment [32] is CHIKV E2-6K-E1 envelope proteins (strain S27) with E2 T191A (Chikungunya virus strain S27) (UniProt Q8JUX5). As to the kind of experiment: flow cytometry, transfected 293T cells.
The target of experiment [33] is CHIKV E2-6K-E1 envelope proteins (strain S27) with E2 T196A (Chikungunya virus strain S27) (UniProt Q8JUX5). As to the kind of experiment: flow cytometry, transfected 293T cells.
In experiment [34] the target is CHIKV E2-6K-E1 envelope proteins (strain S27) with E2 T212A (Chikungunya virus strain S27) (UniProt Q8JUX5). As to the kind of experiment: flow cytometry, transfected 293T cells.
Experiment [35] has as its target CHIKV E2-6K-E1 envelope proteins (strain S27) with E2 V188A (Chikungunya virus strain S27) (UniProt Q8JUX5). As to the kind of experiment: flow cytometry, transfected 293T cells.
The target in experiment [36] is CHIKV E2-6K-E1 envelope proteins (strain S27) with E2 V192A (Chikungunya virus strain S27) (UniProt Q8JUX5). As to the kind of experiment: flow cytometry, transfected 293T cells.
Experiment [37] addresses CHIKV E2-6K-E1 envelope proteins (strain S27) with E2 V197A (Chikungunya virus strain S27) (UniProt Q8JUX5). In words: flow cytometry, transfected 293T cells.
For experiment [38], the target named is CHIKV E2-6K-E1 envelope proteins (strain S27) with E2 V216A (Chikungunya virus strain S27) (UniProt Q8JUX5). In words: flow cytometry, transfected 293T cells.
Experiment [39] deals with CHIKV E2-6K-E1 envelope proteins (strain S27) with E2 Y199A (Chikungunya virus strain S27) (UniProt Q8JUX5). In words: flow cytometry, transfected 293T cells.
Experiment [40] concerns the target CHIKV virus-like particles (strain 37997) (chikungunya virus). This is another data set of the same source.
The target of experiment [41] is Sindbis virus strain TR339 (virions; also structural proteins on infected Vero cells) (Sindbis virus).
Experiment [42] has as its target CHIKV virus-like particles (strain 37997) (chikungunya virus). This is another data set of the same source.
The target is the same in experiment [43]. In words: SPR, […], kinetic fit ([…].
The target is the same in experiment [44]. This is another data set of the same source.

“And” between values parts separate entries of the source, which are not always exact repeats. Equal entries are not always repeated. Where two headings read alike, the source gives them in different places.

The results in this text go back to patent US20240124553A1.

One may read the Kd as the constant that tells how readily two partners part at equilibrium. On to “monovalent Du-D1-Mo-D2 MXRA8 (cleaved from the Fc fusion with GlySERIAS) (from UniProt Q9DBV4 23-65; Q9DBV4 195-293) (receptor)”, for which the Kd is 545 nM in experiment [1] and 665 nM in [2].

In the case of IM-CKV063 (antibody), the Binding Reactivity (% WT) in [3] was 47.7 % WT; in experiment [4], 45.1 % WT; in [5], 95.2 % WT; in [6], 95.4 % WT; in experiment [7], 91.5 % WT; in experiment [8], 62 % WT. Further, the Binding Reactivity (% WT) was determined as 99.8 % WT in [9]; 56.1 % WT in experiment [10]; 77.2 % WT in experiment [11]; 69.7 % WT in [12]; 109 % WT in [13]; 119 % WT in [14]. In addition, the Binding Reactivity (% WT) in experiment [15] was 102 % WT; in [16], 114 % WT; in [17], 87.9 % WT; in experiment [18] it was 86.3 % WT; in experiment [19], 114 % WT; in experiment [20] it was 85.7 % WT. Moreover, the Binding Reactivity (% WT) is 92.8 % WT in experiment [21]; 97.6 % WT in [22]; 98 % WT in experiment [23]; 101 % WT in [24]; 121 % WT in experiment [25]; 78.6 % WT in experiment [26]. In addition, the Binding Reactivity (% WT) in experiment [27] was 98.2 % WT; in [28], 121 % WT; in experiment [29] it was 108 % WT; in experiment [30] it was 94 % WT; in experiment [31], 119 % WT; in [32], 94.8 % WT. For the same substance, the Binding Reactivity (% WT) in [33] stood at 83 % WT; in [34] it was 108 % WT; in experiment [35], 114 % WT; in experiment [36], 98.3 % WT; in [37] it was 67.4 % WT; in experiment [38], 97.7 % WT. In experiment [39], the Binding Reactivity (% WT) amounted to 79.8 % WT.

Turning to MAb C9 (antibody), the Binding Reactivity (% WT) in experiment [3] was 65 % WT; in experiment [4], 58.3 % WT; in experiment [5] it was 104 % WT; in [6], 101 % WT; in experiment [7] it was 106 % WT; in [8] it was 111 % WT. In addition, the Binding Reactivity (% WT) in experiment [9] was found to be 108 % WT; in experiment [10] it was 81.8 % WT; in experiment [11] it was 126 % WT; in [12], 110 % WT; in experiment [13], 129 % WT; in [14], 144 % WT. Besides, the Binding Reactivity (% WT) in experiment [15] was found to be 143 % WT; in [16] it was 126 % WT; in experiment [17] it was 110 % WT; in [18] it was 105 % WT; in experiment [19] it was 123 % WT; in experiment [20], 113 % WT. The Binding Reactivity (% WT) in [21] amounted to 96.2 % WT; in experiment [22], 72 % WT; in experiment [23], 117 % WT; in [24] it was 176 % WT; in experiment [25], 135 % WT; in experiment [26], 129 % WT. The Binding Reactivity (% WT) in experiment [27] is 122 % WT; in experiment [28], 132 % WT; in experiment [29] it was 105 % WT; in experiment [30], 119 % WT; in experiment [31] it was 96 % WT; in [32] it was 118 % WT. In addition, the Binding Reactivity (% WT) in [33] came to 99.8 % WT; in [34], 125 % WT; in experiment [35], 141 % WT; in experiment [36] it was 114 % WT; in experiment [37], 83.8 % WT; in [38] it was 112 % WT. Besides, the Binding Reactivity (% WT) in experiment [39] was found to be 122 % WT.

Regarding “monovalent mouse MXRA8 (cleaved from mouse MXRA8-Fc with GlySERIAS) (from UniProt Q9DBV4 20-340) (receptor)”, the values for the Kd in experiment [1] and in experiment [40] were 68 nM and 76 nM, respectively.

duck MXRA8-Fc (Fc fusion) returned a neutralisation of SINV-GFP infection; IC50 (read off the curve) in experiment [41] of 1 µg/mL.

In the case of “cleaved human Mxra8 (human monomeric MXRA8) (from UniProt Q9BRK3 20-341) (receptor)”, the Kd in [42] is 60 nM and 300 nM; in experiment [43] it was 98.3 nM and 210 nM.

The term EC50 (read off the curve) denotes the concentration that produces a half-maximal response. A higher EC50 (read off the curve) goes with lower potency in that assay. “CHK-265 (murine anti-CHIKV mAb) (antibody)” had an EC50 (read off the curve) in [44] of 0.003 µg/mL.
